Measurements as given in US20200292534A1.

Target: T1, NLpoly11S
T1 chain: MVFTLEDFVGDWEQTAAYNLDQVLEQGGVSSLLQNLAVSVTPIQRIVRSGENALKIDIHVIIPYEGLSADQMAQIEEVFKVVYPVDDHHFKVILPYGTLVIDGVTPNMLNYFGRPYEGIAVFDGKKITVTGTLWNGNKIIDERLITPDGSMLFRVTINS
Assay: luminescence complementation titration, one-site specific binding fit

| Binder | Bmax | Kd [µM] |
| --- | --- | --- |
| VTGYRLFKKIS (modifications not checked) [array2.1] | 135000 | 0.0133 |
| VTGYRLFKQAS (modifications not checked) [array2.5] | 31000 | 1.95 |
| VEGYRLFKKIS (modifications not checked) [array2.55] | 42400 | 0.078 |
| VEGYRLFKKAS (modifications not checked) [array2.56] | 15900 | 0.641 |
| VEGYRLFKKES (modifications not checked) [array2.57] | 3370 | 0.891 |
| VEGYRLFKQIS (modifications not checked) [array2.58] | 21500 | 2.09 |
| VEGYRLFKQAS (modifications not checked) [array2.59] | 2300 | 2.09 |
| VEGYRLFKQES (modifications not checked) [array2.60] | 4350 | 10.6 |
| VTGYRLFKQES (modifications not checked) [array2.6] | 5010 | 1.35 |
| VEGYRLFKEIS (modifications not checked) [array2.61] | 5460 | 14.4 |
| VEGYRLFKEAS (modifications not checked) [array2.62] | 2380 | 22.1 |
| VEGYRLFKEES (modifications not checked) [array2.63] | 17300 | 220 |
| VEGYRLFQKIS (modifications not checked) [array2.64] | 36500 | 0.586 |
| VEGYRLFQKAS (modifications not checked) [array2.65] | 10600 | 1.93 |
| VEGYRLFQKES (modifications not checked) [array2.66] | 3490 | 2.87 |
| VEGYRLFQQIS (modifications not checked) [array2.67] | 5220 | 8.14 |
| VEGYRLFQQAS (modifications not checked) [array2.68] | 3750 | 20 |
| VEGYRLFQEIS (modifications not checked) [array2.70] | 29200 | 230 |
| VEGYRLFQEAS (modifications not checked) [array2.71] | 44900 | 24 |
| VTGYRLFKEIS (modifications not checked) [array2.7] | 32000 | 4.44 |
| VEGYRLFEKIS (modifications not checked) [array2.73] | 22500 | 2.15 |
| VEGYRLFEKAS (modifications not checked) [array2.74] | 3810 | 4.14 |
| VEGYRLFEKES (modifications not checked) [array2.75] | 1170 | 2.97 |
| VEGYRLFEQIS (modifications not checked) [array2.76] | 18000 | 52.8 |
| VEGYRLFEQAS (modifications not checked) [array2.77] | 26900 | 48.3 |
| VEGYRLFEQES (modifications not checked) [array2.78] | 39400 | 252 |
